Where a chain is given by its changes, count along the chain named. Names may count otherwise.

Experimental findings from PMC6561789 (Molecular microbiology, 2019) are described below.

The series “AUC” deals with the molecule itself. The series is described as follows: AUC.
The series “SEC” deals with the molecule itself. The series can be described thus: SEC. Background: In gel filtration, larger molecules generally elute earlier.

B1: HigA antitoxin (Proteus vulgaris, Rts1 plasmid), wild type (natural protein)
chain: MRQFKVSHPGEMIARDLEDMGVSGRRFAHNIGVTPATVSRLLAGKTALTPSLSIRIAAALGSTPEFWLRLQSNYDLRQLENQIDTSGIVLYGESNEQQQNAQEH
As usually defined, the stoichiometry N is the number of molecules, sites or subunits per partner or assembly. With B1, in the series “AUC”, the “stoichiometry N” value amounted to 2.

B2: HigA R40A variant (Proteus vulgaris, Rts1 plasmid) (natural protein)
chain: B1 chain with R40A
Consider B2, for which the “stoichiometry N” value in “SEC” was found to be 2.
